What was measured:
Experiment in all cases: cell-based or functional assay
[1] = target: Hemagglutinin (HA) of Influenza A virus A/Solomon 3/2006 H1N1 (inactivated subunits, vaccine) (Influenza A virus A/Solomon 3/2006 H1N1)
[2] = target: Hemagglutinin (HA) of Influenza A virus A/Wisconsin/67/2005 H3N2 (inactivated subunits, vaccine) (Influenza A virus A/Wisconsin/67/2005 H3N2)
[3] = target: Hemagglutinin (HA) of Influenza A virus A/Parma/24/09 (Brisbane-like) (oseltamivir-resistant) H1N1 (Influenza A virus A/Parma/24/09 H1N1)

Row | Binder | activity on viral hemagglutination (HI) [1] | activity on viral hemagglutination (HI) [2] | activity on viral hemagglutination (HI) [3]
1 | bLf C-lobe (aa 285-689) (protein) SFQLFGSPPGQRDLLFKDSALGFLRIPSKVDSALYLGSRYLTTLKNLRETAEEVKARYTRVVWCAVGPEEQKKCQQWSQQSGQNVTCATASTTDDCIVLVLKGEADALNLDGGYIYTAGKCGLVPVLAENRKSSKHSSLDCVLRPTEGYLAVAVVKKANEGLTWNSLKDKKSCHTAVDRTAGWNIPMGLIVNQTGSCAFDEFFSQSCAPGADPKSRLCALCAGDDQGLDKCVPNSKEKYYGYTGAFRCLAEDVGDVAFVKNDTVWENTNGESTADWAKNLNREDFRLLCLDGTRKPVTEAQSCHLAVAPNHAVVSRSDRAAHVKQVLLHQQALFGKNGKNCPDKFCLFKSETKNLLFNDNTECLAKLGGRPTYEEYLGTEYVTAIANLKKCSTSPLLEACAFLTR | 5 pM | 1.6 pM | 24 nM
2 | bLf C-lobe (aa 345-689) (protein) VVWCAVGPEEQKKCQQWSQQSGQNVTCATASTTDDCIVLVLKGEADALNLDGGYIYTAGKCGLVPVLAENRKSSKHSSLDCVLRPTEGYLAVAVVKKANEGLTWNSLKDKKSCHTAVDRTAGWNIPMGLIVNQTGSCAFDEFFSQSCAPGADPKSRLCALCAGDDQGLDKCVPNSKEKYYGYTGAFRCLAEDVGDVAFVKNDTVWENTNGESTADWAKNLNREDFRLLCLDGTRKPVTEAQSCHLAVAPNHAVVSRSDRAAHVKQVLLHQQALFGKNGKNCPDKFCLFKSETKNLLFNDNTECLAKLGGRPTYEEYLGTEYVTAIANLKKCSTSPLLEACAFLTR | 5 pM | 1.2 pM | 10 nM

Source: patent US20140322196A1
